Assay results: IntAct's records for PubMed 23222540

Target: ogt1_human OGT (UniProt O15294)
Sequence of UniProt O15294 (O15294 whole entry): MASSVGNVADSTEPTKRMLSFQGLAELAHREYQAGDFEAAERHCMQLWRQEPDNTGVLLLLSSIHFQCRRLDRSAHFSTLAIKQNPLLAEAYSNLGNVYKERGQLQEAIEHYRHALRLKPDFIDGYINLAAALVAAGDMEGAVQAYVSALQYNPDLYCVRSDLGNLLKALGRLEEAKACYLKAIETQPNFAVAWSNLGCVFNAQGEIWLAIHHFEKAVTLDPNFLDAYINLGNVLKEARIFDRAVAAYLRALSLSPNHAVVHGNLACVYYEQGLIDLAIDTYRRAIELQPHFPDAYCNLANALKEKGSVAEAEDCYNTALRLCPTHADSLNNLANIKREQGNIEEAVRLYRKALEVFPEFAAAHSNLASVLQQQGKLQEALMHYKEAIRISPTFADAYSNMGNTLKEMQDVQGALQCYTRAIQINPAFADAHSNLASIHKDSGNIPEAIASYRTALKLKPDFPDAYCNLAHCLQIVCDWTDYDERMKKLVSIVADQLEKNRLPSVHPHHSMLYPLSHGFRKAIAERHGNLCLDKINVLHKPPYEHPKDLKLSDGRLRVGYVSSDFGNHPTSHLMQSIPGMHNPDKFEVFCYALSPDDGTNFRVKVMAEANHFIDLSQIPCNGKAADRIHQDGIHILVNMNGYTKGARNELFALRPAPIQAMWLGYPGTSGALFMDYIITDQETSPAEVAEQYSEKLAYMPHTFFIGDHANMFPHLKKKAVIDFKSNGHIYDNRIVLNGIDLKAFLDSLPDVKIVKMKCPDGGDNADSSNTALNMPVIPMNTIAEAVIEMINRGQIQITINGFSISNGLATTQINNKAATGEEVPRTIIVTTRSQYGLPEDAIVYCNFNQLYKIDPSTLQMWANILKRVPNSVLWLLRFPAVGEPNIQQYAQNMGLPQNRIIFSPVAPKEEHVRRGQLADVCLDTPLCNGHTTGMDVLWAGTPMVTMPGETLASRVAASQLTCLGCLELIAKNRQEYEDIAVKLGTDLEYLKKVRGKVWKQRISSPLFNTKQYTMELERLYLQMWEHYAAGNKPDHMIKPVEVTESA

Methylcytosine dioxygenase TET2 (Homo sapiens), Q6N021-1 H1382Y;D1384A
effect of a mutation on the interaction: with no effect
